For the experiment, the target named is Manduca sexta CAD repeat 12 (CR12) fragment. Nature of the experiment: ELISA. To be noted: plates coated with 0.5 μg of CR12, read off a plot.

As for “Cry1Ab protoxin (from UniProt P0A370) G439D”, the response (Absorbance 490 nm) came out at 0.82 (25 nM protoxin mixed with PxHsp90 at a 1:30 ratio (protoxin to chaperone), parent measured without PxHsp90, parent: est. …); 0.44 (25 nM protoxin, no PxHsp90, parent: est. 0.86); 1.2 (50 nM protoxin mixed with PxHsp90 at a 1:30 ratio (protoxin to chaperone), parent measured without PxHsp90, parent: est. …); 0.47 (50 nM protoxin, no PxHsp90, parent: est. 0.95); 1.6 (100 nM protoxin mixed with PxHsp90 at a 1:30 ratio (protoxin to chaperone), parent measured without PxHsp90, parent: est. …); 0.52 (100 nM protoxin, no PxHsp90, parent: est. 1.2).

As to “Cry1Ab activated toxin (from UniProt P0A370) G439D”, the response (Absorbance 490 nm) worked out at 0.58 (25 nM activated toxin mixed with PxHsp90 at a 1:30 ratio (toxin to chaperone), parent measured without PxHsp90, parent: est. 1.2); 0.44 (25 nM activated toxin, no PxHsp90, parent: est. 1.2); 0.77 (50 nM activated toxin mixed with PxHsp90 at a 1:30 ratio (toxin to chaperone), parent measured without PxHsp90, parent: est. 1.6); 0.48 (50 nM activated toxin, no PxHsp90, parent: est. 1.6); 1.1 (100 nM activated toxin mixed with PxHsp90 at a 1:30 ratio (toxin to chaperone), parent measured without PxHsp90, parent: est. 1.7); 0.66 (100 nM activated toxin, no PxHsp90, parent: est. 1.7).

For the origin of these results see PMC6879724.
